# From patent US20260242478A1 (published 2026)
# Where no end group is shown, it is not given here.
# B1: Phage-2820 (Peptide-180 library clone) (peptide)
# peptide: FEKWCTPLWMCADS
# modifications: cysteine pairing not given here; also: fused to pIII, displayed on bacteriophage
# B2: Phage-2819 (Peptide-180 library clone) (peptide)
# peptide: IDKWCKPVWMCADN
# modifications: cysteine pairing not given here; also: fused to pIII, displayed on bacteriophage
# Key:
# [1] = biological target: T1, Anti-CD28 Fab (SEQ ID NOs: 696, 697); assay: phage ELISA on plate-bound anti-CD28 Fab pre-incubated with CD28 antigen as competitor
# T1 construct: In the phage ELISA the Fab was biotinylated and captured on neutravidin coated plates
# T1 sequence (VH, as listed by the source, chain 1 of 2): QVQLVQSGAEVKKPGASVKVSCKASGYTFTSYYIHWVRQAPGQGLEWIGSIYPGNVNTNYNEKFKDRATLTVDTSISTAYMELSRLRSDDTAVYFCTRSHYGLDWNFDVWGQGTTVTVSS
# T1 sequence (VL, as listed by the source, chain 2 of 2): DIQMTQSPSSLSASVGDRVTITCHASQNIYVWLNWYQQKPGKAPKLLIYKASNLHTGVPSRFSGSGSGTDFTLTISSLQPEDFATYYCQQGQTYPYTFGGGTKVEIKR
# Method: (§1) Clonal phage were harvested as crude supematants and screened via standard ELISAs. […] Prior to the addition of clonal phage, wells were incubated with blocking buffer and CD28 antigen or blocking buffer alone. Without washing or aspirating, clonal phage supematants were then added to the wells and incubated for a short time. Wells were then washed followed by detection of bound phage using a horse radish conjugated anti-M13 antibody.
# [2] = biological target: T1, Anti-CD28 Fab (SEQ ID NOs: 696, 697); assay: phage ELISA; clonal phage supernatant on biotinylated anti-CD28 Fab captured on neutravidin plate, anti-M13-HRP detection
# Method: as §1
# [3] = biological target: T2, PSMA Fab (006 PSMA Fab); assay: phage ELISA; PSMA Fab on plate pre-incubated with PSMA antigen as competitor, anti-M13 HRP detection;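 further: crude clonal phage supernatants added to Fab-coated wells still holding PSMA antigen in blocking buffer, with bound phage as read-out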
# T2 construct: In the phage ELISA the PSMA Fab was biotinylated and captured on neutravidin coated plates; also called Anti-PSMA Fab; anti-PSMA Fab
# Method: (§2) Clonal phage were harvested as crude supernatants and screened via standard ELISAs. […] Prior to the addition of clonal phage. wells were incubated with blocking buffer and PSMA antigen or blocking buffer alone. Without washing or aspirating, clonal phage supernatants were then added to the wells and incubated for a short time. Wells were then washed followed by detection of bound phage using a horse radish conjugated anti-M13 antibody.
# [4] = biological target: T2, PSMA Fab (006 PSMA Fab); assay: phage ELISA; biotinylated PSMA Fab on neutravidin plate, clonal phage supernatant, anti-M13 HRP detection;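 further: wells preincubated with PSMA antigen in blocking buffer or with blocking buffer only before clonal phage were added for a short incubation, then bound phage detected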
# Method: as §2
# [5] = biological target: T3, PSMA Fab (006 PSMA Fab) (biotinylated for capture on neutravidin plates (site not stated)); assay: clonal phage ELISA on captured PSMA Fab pre-incubated with PSMA antigen as competitor, anti-M13-HRP detection;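 further: wells blocked with buffer plus PSMA antigen before phage addition, with blocking buffer alone as the no-competitor control, bound phage detected after washing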
# T3 construct: also called Anti-PSMA Fab
# [6] = biological target: T3, PSMA Fab (006 PSMA Fab); assay: clonal phage ELISA on biotinylated PSMA Fab captured on neutravidin plates, anti-M13-HRP detection;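 further: crude clonal phage supernatants added to wells preincubated with PSMA antigen or with blocking buffer only (no wash between), briefly incubated, then washed before detecting bound phage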
# Method: as §2
Binder,Anti-CD28 Fab signal in the presence of CD28 (phage binding ELISA) [1],Anti-CD28 Fab signal (phage binding ELISA) [2],"phage binding ELISA signal (Anti-PSMA Fab, PSMA antigen present) [3]","Phage binding ELISA signal, Anti-PSMA Fab [4]",also measured
MCAAGFHYPWPACL (cysteine pairing not given here; also: fused to phage pIII protein) [Phage-1374 peptide (SEQ ID NO: 1670)],0.1,2.23,,,
YHKWCTPEWMCVFD [Phage-2825 (Peptide-180 library clone)],,,0.0666,0.474,
AFPSCIPEWMCSGM [Phage-2831 (Peptide-180 library clone)],,,0.149,0.45,
GLPWCVPQWMCVVS [Phage-2824 (Peptide-180 library clone)],,,0.0721,0.482,
B1,,,0.0612,0.5,
TCAAGAAYPWPLCF [Phage-1377 peptide (SEQ ID NO: 1673)],0.11,2.18,,,
B2,,,0.0659,0.5,
RCSAGFHYPLSLCL [Phage-1380 peptide (SEQ ID NO: 1676)],0.06,2.18,,,
LCNAGATYSWPTCL [Phage-1387 peptide (SEQ ID NO: 1683)],0.06,2.14,,,
NCSAGAQWPWPICL [Phage-1383 peptide (SEQ ID NO: 1679)],0.08,2.15,,,
TCSAGATYTWSKCF [Phage-1386 peptide (SEQ ID NO: 1682)],0.06,2.15,,,
EFKWCSPAQLCVNG [Phage-2832 (Peptide-180 library clone)],,,0.0526,0.447,
LCAAGAHYPWPQCL [Phage-1384 peptide (SEQ ID NO: 1680)],0.07,2.15,,,
SCAAGAMYSWPTCL [Phage-1382 peptide (SEQ ID NO: 1678)],0.08,2.16,,,
NCSAGATYPWPLCL [Phage-1381 peptide (SEQ ID NO: 1677)],0.07,2.17,,,
QAIWCIPDWMCVQN [Phage-2830 (Peptide-180 library clone)],,,0.137,0.454,

Binder,Anti-CD28 Fab signal in the presence of CD28 (phage binding ELISA) [1],Anti-CD28 Fab signal (phage binding ELISA) [2],"phage binding ELISA signal (Anti-PSMA Fab, PSMA antigen present) [3]","Phage binding ELISA signal, Anti-PSMA Fab [4]",also measured
TCAAGAHWPWPTCF [Phage-1385 peptide (SEQ ID NO: 1681)],0.07,2.15,,,
MCSAGANWPWPLCF [Phage-1379 peptide (SEQ ID NO: 1675)],0.07,2.18,,,
TCAAGATYAWPYCV [Phage-1376 peptide (SEQ ID NO: 1672)],0.09,2.21,,,
EVKWCTPYWMCIDT [Phage-2833 (Peptide-180 library clone)],,,0.072,0.443,
GVNWCVPPWMCLND [Phage-2823 (Peptide-180 library clone)],,,0.0879,0.484,
SSNWCTPAWMCVTS [Phage-2826 (Peptide-180 library clone)],,,0.0627,0.47,
TCAAGANWEWPWCF [Phage-1375 peptide (SEQ ID NO: 1671)],0.08,2.22,,,
DIRWCTPPWMCMHL [Phage-2822 (Peptide-180 library clone)],,,0.258,0.486,
NTNWCTPPWMCEGL [Phage-2834 (Peptide-180 library clone)],,,0.0664,0.442,
SVHMCKPPWMCQSM [Phage-2818],,,,,"Phage binding ELISA signal, Anti-PSMA Fab in presence of PSMA [5]: 0.077; Phage binding ELISA signal, Anti-PSMA Fab [6]: 0.509"
DVKWCTPRWMCELS [Phage-2829 (Peptide-180 library clone)],,,0.0913,0.457,
GEKWCSPAWMCEWL [Phage-2828 (Peptide-180 library clone)],,,0.0817,0.459,
TCSAGASNKLSLCL [Phage-1378 peptide (SEQ ID NO: 1674)],0.06,2.18,,,
LEKWCIPSQLCQLD [Phage-2827 (Peptide-180 library clone)],,,0.0743,0.464,
WDNWCTPSWMCSTA [Phage-2821 (Peptide-180 library clone)],,,0.0814,0.488,
